Experimental data: article doi:10.1101/2020.02.28.970301

What was measured:
[1] = biological target: MBP-RAMP1.24-111-(GS)5-CLR.29-144-H6 (human) (UniProt O60894); assay: fluorescence polarisation
[2] = biological target: MBP-RAMP3.25-111-(GS)5-CLR.29-144-H6 (human) (UniProt O60896); assay: fluorescence polarisation
[3] = biological target: MBP-RAMP2.55-140[L106R]-(GS)5-CLR.29-144-H6 (human) (UniProt O60895); assay: fluorescence polarisation
[4] = biological target: RAMP2:CLR full-length receptor complex (AM1 receptor) (human) (UniProt O60895)
[5] = biological target: RAMP1:CLR full-length receptor complex (CGRP receptor) (human) (UniProt O60894)
[6] = biological target: RAMP3:CLR full-length receptor complex (AM2 receptor) (human) (UniProt O60896)
[7] = biological target: T1, MBP-RAMP1.24-111-(GS)5-CLR.29-144-H6 (human), O60894; assay: fluorescence polarisation
T1 chain: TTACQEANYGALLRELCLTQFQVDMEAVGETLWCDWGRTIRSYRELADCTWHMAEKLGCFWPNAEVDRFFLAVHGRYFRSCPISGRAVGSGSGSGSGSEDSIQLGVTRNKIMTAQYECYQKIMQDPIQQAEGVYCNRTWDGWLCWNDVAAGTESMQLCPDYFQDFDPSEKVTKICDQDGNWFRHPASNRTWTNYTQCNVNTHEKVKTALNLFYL

RAMP2:CLR full-length receptor complex (AM1 receptor) (human), sequence (O60895 43-175, chain 1 of 2): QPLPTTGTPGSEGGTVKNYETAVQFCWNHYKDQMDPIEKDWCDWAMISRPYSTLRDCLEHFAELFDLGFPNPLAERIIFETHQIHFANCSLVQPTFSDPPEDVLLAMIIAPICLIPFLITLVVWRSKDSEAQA
RAMP2:CLR full-length receptor complex (AM1 receptor) (human), sequence (Q16602 23-461, chain 2 of 2, further chain): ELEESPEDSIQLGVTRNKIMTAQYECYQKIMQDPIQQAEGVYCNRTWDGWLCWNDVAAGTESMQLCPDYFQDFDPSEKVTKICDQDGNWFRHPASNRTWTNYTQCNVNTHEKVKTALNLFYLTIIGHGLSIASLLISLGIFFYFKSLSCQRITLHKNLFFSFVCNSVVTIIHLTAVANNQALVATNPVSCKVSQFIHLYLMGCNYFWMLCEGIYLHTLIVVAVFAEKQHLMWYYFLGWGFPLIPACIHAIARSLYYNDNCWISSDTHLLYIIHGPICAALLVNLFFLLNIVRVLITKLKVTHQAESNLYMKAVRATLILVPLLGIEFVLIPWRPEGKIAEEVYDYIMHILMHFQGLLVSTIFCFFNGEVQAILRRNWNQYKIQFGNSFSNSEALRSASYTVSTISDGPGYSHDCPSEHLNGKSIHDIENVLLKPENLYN
RAMP3:CLR full-length receptor complex (AM2 receptor) (human), sequence (O60896 24-148, chain 1 of 2): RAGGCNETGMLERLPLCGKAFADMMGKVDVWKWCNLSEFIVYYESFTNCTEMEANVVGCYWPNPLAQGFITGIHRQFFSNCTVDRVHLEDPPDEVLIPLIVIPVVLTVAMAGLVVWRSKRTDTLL
RAMP3:CLR full-length receptor complex (AM2 receptor) (human), sequence (Q16602 23-461, chain 2 of 2, further chain): as the sequence (Q16602 23-461, chain 2 of 2, further chain) above
RAMP1:CLR full-length receptor complex (CGRP receptor) (human), sequence (O60894 27-148, chain 1 of 2): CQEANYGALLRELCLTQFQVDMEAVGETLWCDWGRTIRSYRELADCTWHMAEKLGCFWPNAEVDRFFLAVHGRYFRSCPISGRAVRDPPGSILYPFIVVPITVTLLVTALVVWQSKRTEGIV
RAMP1:CLR full-length receptor complex (CGRP receptor) (human), sequence (Q16602 23-461, chain 2 of 2, further chain): as the sequence (Q16602 23-461, chain 2 of 2, further chain) above

AM(37-52) S48G/Q50W (peptide) gave a fold increase in affinity against Q50W [1] of 6 fold, a fold increase in affinity against Q50W [2] of 6 fold and a fold increase in affinity against Q50W [3] of 13 fold.

Work on “CGRP(8-37) N31D/S34P/K35W/A36S (peptide)” yielded a cAMP antagonism in COS-7 cells; estimated receptor residence time [4] of 5.2 h, a cAMP antagonism in COS-7 cells; estimated receptor residence time [5] of 12.5 h and a cAMP antagonism in COS-7 cells; estimated receptor residence time [6] of 11 h.

AM(22-52) S48G/Q50W (peptide) gave an antagonism of cAMP signalling in COS-7 cells, apparent KB (Gaddum/Schild) [4] of 80 pM.

AM(37-52) S45R/K46A/S48G/Q50W (peptide) gave a fold decrease in affinity against S45R/K46L/S48G/Q50W [1] of 10 fold, a fold decrease in affinity against S45R/K46L/S48G/Q50W [2] of 10 fold and a fold decrease in affinity against S45R/K46L/S48G/Q50W [3] of 10 fold.

AM2/IMD S43G/H45W (peptide) gave a pKI [1] of 4.75.

AM(37-52) S45R/K46L/Q50W (peptide) gave a fold increase in affinity against K46L/Q50W [1] of 5 fold, a fold increase in affinity against K46L/Q50W [2] of 5 fold and a fold increase in affinity against K46L/Q50W [3] of 17 fold.

AM S48G (peptide) gave a fold increase in affinity against wild-type AM [3] of 5 fold.

GPAGRQDSAPVDPSSPWSY (modifications not checked) [AM2/IMD H45W] showed a pKI [7] of 6.08.
